# US20210238302A1, “HIGH AFFINITY MONOCLONAL ANTIBODIES (MABS) AGAINST CELL SURFACE EXPRESSED HUMAN CARBONIC ANHYDRASE IX (HCA-IX), AND USES THEREOF” (NATIONAL RESEARCH COUNCIL OF CANADA, priority 2018, published 2021)
# Where “and” joins values, the source holds several entries; their conditions need not be identical. Identical values can stand only once. Entries after “also recorded” stand apart in the source; their conditions may differ. Like-named read-outs stand apart in the source and are kept apart here.
# B1: 9B6: mouse IgG2b monoclonal antibody inhibiting hCA-IX catalytic activity; SEQ ID NO.14 and 18; hybridoma-derived and recombinant (SEQ ID NO. 24 and 25) (antibody, V domains shown)
# VL: DIVLTQSPSSLAVSLGQRATISCKASQSVDYDGNSYMNWFQQKPGQPPKLLIYEASSLESGIPARISGSGSGTDFTLNIHPVEEEDAATYYCQQSYEGPYTFGGGTKLEIK
# VH: QVQLQQPGAELVKPGASVKLSCKASGYIFTTKWINWVKQRPGQGLEWIGNIYPGSSNTYYNEKFKNKATLTVDKSSNTAHLQLSSLTSEDSAVYYCARGIANWGQGTPVTVSA
# How the values were obtained:
# [1] = target: rhCA-IV (Homo sapiens, UniProt P22748); test: Cross-reactivity determination by SPR; type: binding
# Source text: (§1) hCA-IX is one of several hCAs that have been identified to date (see FIG. 1). […] In contrast to hCA-IX the expression pattern of hCA-XII is much more widespread and not as cancer specific as hCA-IX.
# [2] = target: rhCA-XIV (Homo sapiens, UniProt Q9ULX7); test: Cross-reactivity determination by SPR; type: binding
# Source text: as §1
# [3] = target: rhCA-XII (Homo sapiens, UniProt O43570); test: Cross-reactivity determination by SPR; type: binding
# Source text: as §1
# [4] = tested on: SK-RC-52 cells; test: Internalization of pHAb dye labeled mAbs; type: cell-based, human; conditions: antibody-pHAb dye conjugates, 37° C., 24 h
# Source text: In addition, we also evaluated the internalization potential of these mAbs with the thought of using these enzyme-inhibiting mAbs to bring a toxic pay-load into cancer cells. For this, both mAbs, in addition to a negative control IgG, were labeled with a pH sensitive reactive dye (pHAb; Promega). Upon receptor-mediated internalization, these antibody-pHAb Dye conjugates traffick to the endosome and lysosomal vesicles where pH is acidic, causing the pHAb dye to fluoresce. CA-IX expressing SK-RC-52 expressing cells were incubated with these antibody-pHAb dye conjugates (10 μg/mL) and incubated at 37° C. (5% CO2, humidified environment) for 24 h (FIG. 18A) or coated with various concentrations of the conjugates for 30 min at 4° C., washed, and then transferred to 37° C. (5% CO2, humidified environment) for 24 h (FIG. 18B).
# [5] = target: T1, rhCA-IX ECD (Homo sapiens, UniProt Q16790); type: biochemical
# Source text: To determine whether these mAbs can inhibit the enzyme activity of the rhCA-IX ECD protein, we used an activity assay in which 4-Nitrophenyl acetate (4-NPA) is used as a substrate. […]
# [6] = target: rhCA-IX ECD monomer or dimer (Homo sapiens, UniProt Q16790)
# [7] = Cell viability; type: cell-based
# [8] = target: T1, rhCA-IX ECD; test: Reverse Phase Protein Array (RPPA); type: binding
# [9] = tested on: hCA-IX ECD fragments; test: Epitope mapping by Yeast Surface Display (whole yeast cell ELISA); type: binding, human; parameters: key: −: no binding; +: binding
# Experimental: Yeast Surface Display (YSD; developed by the Wittrup lab) is used for presenting properly folded (ensured by the “quality-control” processes of the secretory pathway of the yeast) antigen fragments on the yeast cell surface through covalent linkage (FIG. 15A). […] The epitope mapping of the mAbs was performed using a whole yeast cell ELISA protocol. […] These experiments were performed on native and denatured yeast cells, where in both cases binding of each mAb was normalized to the anti-MYC signal. The ratio of each normalized anti-CA-IX mAb signal of native versus denatured hCA-IX peptide is thus indicative of the conformational nature of the mAb binding epitope. In the native hCA-IX experiments the commercial M75 mAb was used as a positive control; the epitope of this mAb is known (Zavada et al., 2000) and is located in hCA-IX's PG domain.
# [10] = target: rmCA-IX (Mus musculus, UniProt Q8VHB5); test: Cross-reactivity determination by SPR; type: binding, murine
# Source text: as §1
# [11] = target: T2, low hCA-IX expressing SK-RC-59 cells (Homo sapiens, UniProt Q16790); test: Flow cytometry binding, SK-RC-59 cells; type: cell-based; conditions: SK-RC-59 (low hCA-IX)
# T2 construct: the non-transfected human renal tumor SK-RC-59 and SK-RC-52 cell lines; endogenous in cells; host or cells: SK-RC-52 (high hCA-IX), SK-RC-59 (low hCA-IX)
# Experimental: These cell lines have been used in the literature for the screening of scFv Abs for binding to hCA-IX (Xu et al., 2011). Western blot analysis of these cell lines under reducing and non-reducing conditions (FIG. 8) confirmed the expression of hCA-IX in the SK-RC-52 cell line (indicated with a star), whereas no hCA-IX could be detected in the SK-RC-59 cell line. Equal protein quantities were loaded (BCA protein assay) which was confirmed by an actin blot.
# Flow cytometry: mAbs were evaluated in a flow cytometry experiment using the SK-RC-59 and SK-RC-52 cell lines. As controls a commercially available mAb (R&D, Clone #303123, Cat #MAB2188) and the M75 mAb (generously supplied by Dr E Oosterwijk, Radboud University Nijmegen, The Netherlands) were used. Experiments were plotted per cell line (FIG. 9) using a double Y-axis (left Y-axis, % live cells, closed squares; right Y-axis, mean fluorescence intensity of the live population, closed circles; X-axis, experimental groups).
# [12] = target: rhCA-IX ECD Monomer (Homo sapiens, UniProt Q16790)
# Experimental: (§2) SPR experiments were carried out by capturing the CA-IX mAbs from the CM with an anti-mouse Fc antibody immobilized on the chip surface, after which rhCA-IX EDC mixture, or rhCA-IX EDC monomer or dimer were flowed over the mAb surface.
# [13] = target: rhCA-IX ECD Dimer (Homo sapiens, UniProt Q16790)
# Experimental: as §2
# [14] = Differential Scanning Calorimetry (DSC) thermostability; type: physicochemical; conditions: DSC 25° C. to 100° C., scan rate 90° C./hour; versus Cetuximab
# Experimental: (scan rate 90° C./hour). The therapeutic anti-EGFR Ab Cetuximab, which has been proven to be a very stable under these conditions, was used as control.
# [15] = target: T1, rhCA-IX ECD; test: Western blot of non-purified mAbs on purified CA-IX ECD antigen; type: binding; conditions: undiluted CM; non-reducing and reducing conditions
# Source text: Anti-hCA-IX mAb 10F2 is shown as a positive control.
# [16] = hybridoma-derived mAb, 1 μM rhCA-IX ECD dimer, mAb:rhCA-IX ECD 4:1
# [17] = recombinant mAbs, rhCA-IX ECD monomer
# [18] = hybridoma-derived mAb, rhCA-IX ECD dimer
# Sequence of rhCA-XIV (Q9ULX7 16-337): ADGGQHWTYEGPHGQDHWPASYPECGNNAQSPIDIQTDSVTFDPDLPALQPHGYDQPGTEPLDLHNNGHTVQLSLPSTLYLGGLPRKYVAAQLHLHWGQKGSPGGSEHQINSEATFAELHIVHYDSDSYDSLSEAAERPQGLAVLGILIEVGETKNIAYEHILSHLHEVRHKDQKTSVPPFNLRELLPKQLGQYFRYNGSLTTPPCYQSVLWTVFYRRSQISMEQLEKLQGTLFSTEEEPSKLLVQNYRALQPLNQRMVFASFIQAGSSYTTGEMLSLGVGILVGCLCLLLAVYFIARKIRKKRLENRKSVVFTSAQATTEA
# Sequence of rmCA-IX (Q8VHB5 32-437): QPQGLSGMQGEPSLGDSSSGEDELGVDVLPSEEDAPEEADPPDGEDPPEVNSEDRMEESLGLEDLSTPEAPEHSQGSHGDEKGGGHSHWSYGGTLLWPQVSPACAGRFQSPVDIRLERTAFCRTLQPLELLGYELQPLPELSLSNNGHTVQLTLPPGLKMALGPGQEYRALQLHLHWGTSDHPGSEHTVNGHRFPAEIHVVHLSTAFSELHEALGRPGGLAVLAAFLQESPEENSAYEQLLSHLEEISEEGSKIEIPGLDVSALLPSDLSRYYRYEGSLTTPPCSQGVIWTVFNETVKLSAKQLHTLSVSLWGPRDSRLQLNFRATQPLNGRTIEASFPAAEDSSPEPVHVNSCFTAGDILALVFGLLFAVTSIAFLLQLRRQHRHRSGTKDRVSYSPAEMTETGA
# Sequence of rhCA-XII (O43570 25-354): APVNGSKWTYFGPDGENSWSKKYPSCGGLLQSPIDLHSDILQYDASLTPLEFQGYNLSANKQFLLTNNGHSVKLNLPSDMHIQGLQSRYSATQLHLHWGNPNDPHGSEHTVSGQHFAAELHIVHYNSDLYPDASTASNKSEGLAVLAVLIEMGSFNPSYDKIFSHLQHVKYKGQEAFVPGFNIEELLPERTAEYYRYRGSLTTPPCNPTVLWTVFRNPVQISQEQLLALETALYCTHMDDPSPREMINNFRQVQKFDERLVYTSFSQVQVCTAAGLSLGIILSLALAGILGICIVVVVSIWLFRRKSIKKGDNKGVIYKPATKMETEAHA
# Sequence of rhCA-IV (P22748 19-284): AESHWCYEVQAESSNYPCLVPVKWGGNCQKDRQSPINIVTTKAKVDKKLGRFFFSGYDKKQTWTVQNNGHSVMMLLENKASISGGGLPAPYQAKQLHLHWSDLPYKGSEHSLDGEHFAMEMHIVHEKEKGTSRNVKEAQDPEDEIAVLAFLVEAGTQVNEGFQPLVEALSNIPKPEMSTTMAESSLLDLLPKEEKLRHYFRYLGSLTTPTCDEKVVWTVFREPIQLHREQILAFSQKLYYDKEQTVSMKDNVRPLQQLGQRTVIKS
molecule,measurement,setting,value
B1,SPR binding (cross-reactivity),[1],no interaction was detected
same,SPR binding (cross-reactivity),[2],no interaction was detected
same,SPR binding (cross-reactivity),[3],no interaction was detected
same,internalization,[4],internalize in a CA-IX specific manner
same,% rhCA-IX ECD Inhibition,[5],42.59%
same,% rhCA-IX ECD Activity,[5]; [16],59.25%
same,% rhCA-IX ECD Inhibition,[5]; [16],40% and 40.75%
same,Comments,"[5]; hybridoma-derived mAb, mAb:rhCA-IX ECD 4:1",Inhibition
same,rhCA-IX ECD enzyme activity inhibition,"[5]; recombinant mAbs and Fabs, 0.5 μM each, rhCA-IX ECD 0.5 μM dimer, 4-NPA",40% and 28%
same,Data1,"[5]; replicate 1 of % rhCA-IX ECD activity, hybridoma-derived mAb, mAb:rhCA-IX ECD 4:1",59.25
same,Data2,"[5]; replicate 2 of % rhCA-IX ECD activity, hybridoma-derived mAb, mAb:rhCA-IX ECD 4:1",55.57
same,competition between 4A2 and 9B6 for binding,"[6]; hybridoma-derived mAbs, rhCA-IX ECD monomer or dimer",do not compete
same,competition between 4A2 and 9B6 for binding,[6]; [17],do not compete for binding to hCA-IX
same,competition with cG250 for binding to hCA-IX,[6]; [17],neither the 9B6 nor the 4A2 mAb competes with cG250
same,reduction of cell viability,[7],active in reducing cell viability
same,Antigen in protein mixture Denatured (D),[8],1.74
same,Antigen in protein mixture Native (C),[8],5.79
same,mAb binding specificity,[8],rhCA-IX
same,preference for native or denatured rhCA-IX ECD,[8],slightly increased preference for the denatured protein
same,Ratio (A)/(B) (Possibly epitope related),[8]; native/denatured purified antigen,0.68
same,Purified Antigen Denatured (B),[8]; non-purified hybridoma mAb,21.55
same,Purified Antigen Native (A),[8]; non-purified hybridoma mAb,14.75
same,Anti-CA-IX Ab binding intensity (normalized on CA-IX_MYC expression on cells),"[9]; Denatured CA-IX protein, EBY100, No-plasmid, Strain Ctrl, Neg Ctrl (PNL6 series)",−
same,Anti-CA-IX Ab binding intensity (normalized on CA-IX_MYC expression on cells),"[9]; Denatured CA-IX protein, EBY100, No-plasmid, Strain Ctrl, Neg Ctrl (PNL200 series)",−
same,Anti-CA-IX Ab binding intensity (normalized on CA-IX_MYC expression on cells),"[9]; Denatured CA-IX protein, clone 1A, PNL6, Aga2-HA-CA9-MYC, fragment 1, aa 52-111, PG",−
same,Anti-CA-IX Ab binding intensity (normalized on CA-IX_MYC expression on cells),"[9]; Denatured CA-IX protein, clone 2B, PNL6, Aga2-HA-CA9-MYC, fragment 2, aa 38-136, +PG+",−
same,Anti-CA-IX Ab binding intensity (normalized on CA-IX_MYC expression on cells),"[9]; Denatured CA-IX protein, clone 3A, PNL6, Aga2-HA-CA9-MYC, fragment 3, aa 1-136, SP+PG+",−
same,Anti-CA-IX Ab binding intensity (normalized on CA-IX_MYC expression on cells),"[9]; Denatured CA-IX protein, clone 11B, PNL6, Aga2-HA-X-MYC, Plasmid Ctrl, Neg Ctrl",−
same,Anti-CA-IX Ab binding intensity (normalized on CA-IX_MYC expression on cells),"[9]; Denatured CA-IX protein, clone 12B, PNL200, CA9-Aga2-MYC, fragment 1, aa 52-111, PG",−
same,Anti-CA-IX Ab binding intensity (normalized on CA-IX_MYC expression on cells),"[9]; Denatured CA-IX protein, clone 13A, PNL200, CA9-Aga2-MYC, fragment 2, aa 38-136, +PG+",−
same,Anti-CA-IX Ab binding intensity (normalized on CA-IX_MYC expression on cells),"[9]; Denatured CA-IX protein, clone 14A, PNL200, CA9-Aga2-MYC, fragment 3, aa 1-136, SP+PG+",−
same,Anti-CA-IX Ab binding intensity (normalized on CA-IX_MYC expression on cells),"[9]; Denatured CA-IX protein, clone 22A, PNL200, X-Aga2-MYC, Plasmid Ctrl, Neg Ctrl",−
same,Anti-CA-IX Ab binding intensity (normalized on CA-IX_MYC expression on cells),"[9]; Native CA-IX protein, EBY100, No-plasmid, Strain Ctrl, Neg Ctrl (PNL6 series)",−
same,Anti-CA-IX Ab binding intensity (normalized on CA-IX_MYC expression on cells),"[9]; Native CA-IX protein, EBY100, No-plasmid, Strain Ctrl, Neg Ctrl (PNL200 series)",−
same,Anti-CA-IX Ab binding intensity (normalized on CA-IX_MYC expression on cells),"[9]; Native CA-IX protein, clone 1A, PNL6, Aga2-HA-CA9-MYC, fragment 1, aa 52-111, PG",−
same,Anti-CA-IX Ab binding intensity (normalized on CA-IX_MYC expression on cells),"[9]; Native CA-IX protein, clone 2B, PNL6, Aga2-HA-CA9-MYC, fragment 2, aa 38-136, +PG+",−
same,Anti-CA-IX Ab binding intensity (normalized on CA-IX_MYC expression on cells),"[9]; Native CA-IX protein, clone 3A, PNL6, Aga2-HA-CA9-MYC, fragment 3, aa 1-136, SP+PG+",−
same,Anti-CA-IX Ab binding intensity (normalized on CA-IX_MYC expression on cells),"[9]; Native CA-IX protein, clone 11B, PNL6, Aga2-HA-X-MYC, Plasmid Ctrl, Neg Ctrl",−
same,Anti-CA-IX Ab binding intensity (normalized on CA-IX_MYC expression on cells),"[9]; Native CA-IX protein, clone 12B, PNL200, CA9-Aga2-MYC, fragment 1, aa 52-111, PG",−
same,Anti-CA-IX Ab binding intensity (normalized on CA-IX_MYC expression on cells),"[9]; Native CA-IX protein, clone 13A, PNL200, CA9-Aga2-MYC, fragment 2, aa 38-136, +PG+",−
same,Anti-CA-IX Ab binding intensity (normalized on CA-IX_MYC expression on cells),"[9]; Native CA-IX protein, clone 14A, PNL200, CA9-Aga2-MYC, fragment 3, aa 1-136, SP+PG+",−
same,Anti-CA-IX Ab binding intensity (normalized on CA-IX_MYC expression on cells),"[9]; Native CA-IX protein, clone 22A, PNL200, X-Aga2-MYC, Plasmid Ctrl, Neg Ctrl",−
same,SPR binding (cross-reactivity),[10],no interaction was detected
same,binding to cell surface hCA-IX by flow cytometry,[11],virtually no binding was detected
same,off rate,[12]; Hybridoma-derived,slow
same,off rate,"[12]; Recombinantly expressed, mIgG2b",slow
same,off rate,"[13]; Hybridoma-derived, rhCA-IX ECD dimer",extremely slow
same,ka,[13]; [18],1.33E+05
same,kd,[13]; [18],4.17E−18
same,binding kinetics,"[13]; recombinant and hybridoma-derived mAb, rhCA-IX ECD dimer (FIG. 12)",poor
same,thermostability,[14],slightly less stable than Cetuximab
same,Western blot binding to rhCA-IX ECD,[15],do not detect rhCA-IX ECD; also recorded: failed to bind
